Experimental findings from US20210139610A1, “COMPOSITIONS AND METHODS FOR MEDIATING EPS” (priority 2018, published 2021) are described below.

For this experiment, the system named is Non-typeable Haemophilus influenzae biofilms. Nature of the experiment: NTHI in vitro biofilm formation, additive present from seeding (LIVE/DEAD, CLSM, COMSTAT). It counts as cell-based. Conditions: RNase A present from seeding, 16 h.

B1: RNase A: ribonuclease (protein, UniProt P61823 27-150, looked up)
Ribonuclease pancreatic: KETAAAKFERQHMDSSTSAASSSNYCNQMMKSRNLTKDRCKPVNTFVHESLADVQAVCSQKNVACKNGQTNCYQSYSTMSITDCRETGSSKYPNCAYKTTQANKHIIVACEGNPYVPVHFDASV
B1: the NTHI biofilm formation entry is listed as “stimulated biofilm formation in a dose-dependent manner”.
